The values below come from patent US20240261333A1, “NOVEL TARGETS FOR ENHANCING ANTI-TUMOR IMMUNITY” (THE BROAD INSTITUTE, INC., priority 2021, published 2024).

One assay addresses GANAB (human) (UniProt Q14697). Kind of assay: co-IP with anti-FLAG, mass spectrometry; lysate of cells with C-FLAG B3GNT2.
A further assay deals with PIGR (human) (UniProt P01833). The assay is described as above.
The target of the next assay is ZC3HAV1 (human) (UniProt Q7Z2W4). The assay is described as above.
A further assay addresses EIF4A1 (human) (UniProt P60842). The assay is described as above.
A further assay addresses SDF4 (human) (UniProt Q9BRK5). Described as above.
The target in the next assay is SPRR1A (human) (UniProt P35321). The description is as above.
A further assay concerns the target TOR1AIP2 (human) (UniProt Q8NFQ8). The assay is described as above.
For a further assay, the target named is RRP12 (human) (UniProt Q5JTH9). The assay is described as above.
Another assay concerns the target EPRS (human) (UniProt P07814). The assay is described as above.
In a further assay the target is HSPD1 (human) (UniProt P10809). Described as above.
The next assay concerns the target IPO13 (human) (UniProt O94829). The assay is described as above.
In another assay the target is DNAJB11 (human) (UniProt Q9UBS4). The description is as above.
The target of the next assay is UGGT1 (human) (UniProt Q9NYU2). The description is as above.
Another assay concerns the target ARHGEF2 (human) (UniProt Q92974). The description is as above.
Another assay has as its target SEL1L (human) (UniProt Q9UBV2). The description is as above.
In another assay the target is CCT2 (human) (UniProt P78371). The description is as above.
For the next assay, the target named is CCT7 (human) (UniProt Q99832). The assay is described as above.
In a further assay the target is ARF4 (human) (UniProt P18085). The assay is described as above.
Another assay concerns the target RPS4X (human) (UniProt P62701). The description is as above.
Another assay addresses GAPDH (human) (UniProt P04406). The description is as above.
The target in a further assay is HADHA (human) (UniProt P40939). Described as above.
A further assay deals with CTHRC1 (human) (UniProt Q96CG8). The description is as above.
The target in the next assay is SLC25A5 (human) (UniProt P05141). Described as above.
A further assay has as its target PJA2 (human) (UniProt O43164). Described as above.
The next assay addresses MYO1C (human) (UniProt O00159). The assay is described as above.
The target of a further assay is RPS27 (human) (UniProt P42677). The description is as above.
Another assay addresses NPM1 (human) (UniProt P06748). The assay is described as above.
For another assay, the target named is RARS (human) (UniProt P54136). The description is as above.
Another assay has as its target STAU2 (human) (UniProt Q9NUL3). Described as above.
The target of another assay is RPL32 (human) (UniProt P62910). The description is as above.
For the next assay, the target named is FUBP3 (human) (UniProt Q96I24). Kind of assay: co-IP, IgG control, lysate of cells with N-FLAG B3GNT2; mass spectrometry.
The next assay has as its target SAMM50 (human) (UniProt Q9Y512). Described as above.
The next assay has as its target HUWE1 (human) (UniProt Q7Z6Z7). The assay is described as above.
A further assay addresses HSPA8 (human) (UniProt P11142). The assay is described as above.
The target in the next assay is LSM12 (human) (UniProt Q3MHD2). The description is as above.
The next assay addresses G3BP1 (human) (UniProt Q13283). The description is as above.
The target of another assay is PRRC2A (human) (UniProt P48634). The assay is described as above.

G3BP1 (human), sequence (Q13283 2-466 limits assumed): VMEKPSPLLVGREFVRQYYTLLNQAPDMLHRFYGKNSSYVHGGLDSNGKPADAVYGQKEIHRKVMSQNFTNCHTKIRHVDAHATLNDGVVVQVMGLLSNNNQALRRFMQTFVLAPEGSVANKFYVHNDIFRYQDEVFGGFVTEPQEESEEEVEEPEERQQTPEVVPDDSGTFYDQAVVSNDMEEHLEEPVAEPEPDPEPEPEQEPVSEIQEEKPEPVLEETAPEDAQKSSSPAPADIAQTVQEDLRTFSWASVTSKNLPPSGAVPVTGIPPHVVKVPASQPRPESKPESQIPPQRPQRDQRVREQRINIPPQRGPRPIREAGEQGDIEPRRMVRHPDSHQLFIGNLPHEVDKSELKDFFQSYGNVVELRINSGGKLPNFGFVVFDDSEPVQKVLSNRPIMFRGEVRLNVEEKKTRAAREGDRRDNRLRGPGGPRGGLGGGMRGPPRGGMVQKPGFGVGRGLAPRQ
SAMM50 (human), sequence (Q9Y512 whole entry): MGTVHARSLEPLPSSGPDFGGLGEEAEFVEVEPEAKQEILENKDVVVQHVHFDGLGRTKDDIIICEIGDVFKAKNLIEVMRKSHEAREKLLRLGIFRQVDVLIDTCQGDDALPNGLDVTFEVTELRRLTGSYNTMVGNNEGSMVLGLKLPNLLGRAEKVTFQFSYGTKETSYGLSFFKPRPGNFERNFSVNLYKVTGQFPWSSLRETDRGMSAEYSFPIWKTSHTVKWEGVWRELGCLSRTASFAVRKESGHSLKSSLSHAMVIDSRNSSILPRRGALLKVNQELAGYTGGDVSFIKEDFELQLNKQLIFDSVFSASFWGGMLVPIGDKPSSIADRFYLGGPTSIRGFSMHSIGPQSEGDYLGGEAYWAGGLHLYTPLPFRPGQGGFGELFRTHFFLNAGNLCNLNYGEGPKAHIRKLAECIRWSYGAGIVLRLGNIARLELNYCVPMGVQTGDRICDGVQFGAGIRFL
FUBP3 (human), sequence (Q96I24 2-572 limits assumed): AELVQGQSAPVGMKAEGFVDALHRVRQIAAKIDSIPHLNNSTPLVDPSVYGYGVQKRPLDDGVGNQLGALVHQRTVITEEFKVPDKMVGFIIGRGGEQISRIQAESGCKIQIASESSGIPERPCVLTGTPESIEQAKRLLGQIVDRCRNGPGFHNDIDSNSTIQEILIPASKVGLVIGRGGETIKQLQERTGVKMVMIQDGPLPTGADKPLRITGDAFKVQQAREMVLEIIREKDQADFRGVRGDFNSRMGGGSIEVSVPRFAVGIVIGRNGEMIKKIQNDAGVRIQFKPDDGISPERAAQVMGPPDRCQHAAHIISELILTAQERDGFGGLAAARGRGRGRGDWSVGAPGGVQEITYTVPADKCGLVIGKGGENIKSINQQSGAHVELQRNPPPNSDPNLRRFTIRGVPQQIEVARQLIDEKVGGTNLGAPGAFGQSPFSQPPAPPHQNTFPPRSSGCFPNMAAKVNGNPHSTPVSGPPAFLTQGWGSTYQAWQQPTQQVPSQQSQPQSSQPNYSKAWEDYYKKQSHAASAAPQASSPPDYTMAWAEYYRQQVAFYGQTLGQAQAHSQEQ
NPM1 (human), sequence (P06748 whole entry): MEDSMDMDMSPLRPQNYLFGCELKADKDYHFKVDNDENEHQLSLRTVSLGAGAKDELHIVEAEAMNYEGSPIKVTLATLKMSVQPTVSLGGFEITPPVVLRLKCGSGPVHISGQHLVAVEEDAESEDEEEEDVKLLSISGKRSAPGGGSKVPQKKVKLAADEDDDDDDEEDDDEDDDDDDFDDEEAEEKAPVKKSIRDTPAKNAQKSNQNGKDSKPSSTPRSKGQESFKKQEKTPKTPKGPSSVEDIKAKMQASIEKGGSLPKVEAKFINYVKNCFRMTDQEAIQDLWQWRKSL
RRP12 (human), sequence (Q5JTH9 other isoform, or with tags, fused parts or gaps limits assumed): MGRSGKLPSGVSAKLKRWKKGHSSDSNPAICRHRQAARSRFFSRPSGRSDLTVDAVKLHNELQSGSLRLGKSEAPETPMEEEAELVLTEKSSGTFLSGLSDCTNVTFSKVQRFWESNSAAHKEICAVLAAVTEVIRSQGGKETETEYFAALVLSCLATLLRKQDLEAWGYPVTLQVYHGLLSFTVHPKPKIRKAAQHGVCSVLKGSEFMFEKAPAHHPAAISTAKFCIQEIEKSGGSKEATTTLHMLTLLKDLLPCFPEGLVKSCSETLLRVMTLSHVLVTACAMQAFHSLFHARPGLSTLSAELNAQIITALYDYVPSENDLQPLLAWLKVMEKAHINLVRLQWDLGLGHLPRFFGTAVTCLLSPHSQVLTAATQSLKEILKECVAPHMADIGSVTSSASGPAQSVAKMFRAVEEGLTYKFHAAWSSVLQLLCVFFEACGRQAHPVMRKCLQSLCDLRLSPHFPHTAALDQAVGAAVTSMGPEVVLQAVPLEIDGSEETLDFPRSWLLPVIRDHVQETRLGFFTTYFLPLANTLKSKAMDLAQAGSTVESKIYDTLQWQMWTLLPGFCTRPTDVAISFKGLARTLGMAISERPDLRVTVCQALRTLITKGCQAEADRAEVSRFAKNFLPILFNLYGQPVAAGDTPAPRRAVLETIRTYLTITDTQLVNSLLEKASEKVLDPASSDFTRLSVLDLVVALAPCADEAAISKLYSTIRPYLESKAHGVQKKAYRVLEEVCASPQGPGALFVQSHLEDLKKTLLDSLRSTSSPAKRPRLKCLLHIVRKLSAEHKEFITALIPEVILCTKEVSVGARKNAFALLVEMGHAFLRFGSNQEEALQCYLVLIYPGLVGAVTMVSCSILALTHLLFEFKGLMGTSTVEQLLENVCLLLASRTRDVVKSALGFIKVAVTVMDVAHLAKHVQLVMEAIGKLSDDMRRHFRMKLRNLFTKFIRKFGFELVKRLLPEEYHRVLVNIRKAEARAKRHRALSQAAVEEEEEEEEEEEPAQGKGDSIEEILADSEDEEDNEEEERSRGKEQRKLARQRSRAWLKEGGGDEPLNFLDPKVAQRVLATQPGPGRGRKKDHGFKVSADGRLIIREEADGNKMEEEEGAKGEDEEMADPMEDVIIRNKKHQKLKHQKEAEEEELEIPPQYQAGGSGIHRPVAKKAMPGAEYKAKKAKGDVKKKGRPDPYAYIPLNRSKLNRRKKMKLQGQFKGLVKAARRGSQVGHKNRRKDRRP
GAPDH (human), sequence (P04406 2-335 limits assumed): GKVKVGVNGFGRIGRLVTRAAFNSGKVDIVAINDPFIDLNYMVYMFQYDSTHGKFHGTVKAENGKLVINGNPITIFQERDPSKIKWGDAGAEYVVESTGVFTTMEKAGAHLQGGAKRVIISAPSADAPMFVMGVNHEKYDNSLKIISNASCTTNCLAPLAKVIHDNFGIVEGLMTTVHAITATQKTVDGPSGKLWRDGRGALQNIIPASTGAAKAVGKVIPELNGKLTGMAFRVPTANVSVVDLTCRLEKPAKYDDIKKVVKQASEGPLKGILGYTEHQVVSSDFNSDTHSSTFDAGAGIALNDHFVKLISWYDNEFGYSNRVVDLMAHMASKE
SDF4 (human), sequence (Q9BRK5 37-362 limits assumed): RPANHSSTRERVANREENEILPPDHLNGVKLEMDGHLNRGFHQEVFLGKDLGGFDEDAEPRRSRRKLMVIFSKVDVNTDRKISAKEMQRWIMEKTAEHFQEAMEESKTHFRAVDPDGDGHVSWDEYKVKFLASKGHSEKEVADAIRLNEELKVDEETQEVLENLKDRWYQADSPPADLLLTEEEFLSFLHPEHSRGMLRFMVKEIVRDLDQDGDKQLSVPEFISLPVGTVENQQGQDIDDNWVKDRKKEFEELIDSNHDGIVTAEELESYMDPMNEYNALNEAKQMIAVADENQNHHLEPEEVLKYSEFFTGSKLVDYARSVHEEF
GANAB (human), sequence (Q14697 29-944 limits assumed): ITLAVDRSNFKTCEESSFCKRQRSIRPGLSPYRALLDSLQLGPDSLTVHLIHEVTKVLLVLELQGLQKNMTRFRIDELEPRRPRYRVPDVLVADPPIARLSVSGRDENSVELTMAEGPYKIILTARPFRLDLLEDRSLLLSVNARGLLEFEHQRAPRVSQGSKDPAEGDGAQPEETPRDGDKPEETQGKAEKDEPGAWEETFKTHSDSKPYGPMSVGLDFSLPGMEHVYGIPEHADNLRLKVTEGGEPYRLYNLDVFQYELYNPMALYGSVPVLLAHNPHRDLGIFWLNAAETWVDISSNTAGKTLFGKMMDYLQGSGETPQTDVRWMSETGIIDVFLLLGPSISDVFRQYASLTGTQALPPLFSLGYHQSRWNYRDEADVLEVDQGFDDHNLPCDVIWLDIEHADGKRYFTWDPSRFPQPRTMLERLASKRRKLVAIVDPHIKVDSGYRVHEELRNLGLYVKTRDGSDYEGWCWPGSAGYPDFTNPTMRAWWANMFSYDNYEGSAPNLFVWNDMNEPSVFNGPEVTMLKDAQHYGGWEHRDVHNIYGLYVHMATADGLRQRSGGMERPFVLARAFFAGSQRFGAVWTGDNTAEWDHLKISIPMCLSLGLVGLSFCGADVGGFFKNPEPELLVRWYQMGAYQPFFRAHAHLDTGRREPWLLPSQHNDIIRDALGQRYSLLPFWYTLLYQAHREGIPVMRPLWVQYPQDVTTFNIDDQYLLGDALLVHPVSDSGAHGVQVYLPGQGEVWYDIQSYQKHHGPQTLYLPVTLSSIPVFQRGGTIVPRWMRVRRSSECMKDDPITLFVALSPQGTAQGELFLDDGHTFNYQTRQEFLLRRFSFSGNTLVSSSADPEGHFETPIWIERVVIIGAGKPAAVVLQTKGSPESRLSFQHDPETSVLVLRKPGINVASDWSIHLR
CTHRC1 (human), sequence (Q96CG8 other isoform, or with tags, fused parts or gaps limits assumed): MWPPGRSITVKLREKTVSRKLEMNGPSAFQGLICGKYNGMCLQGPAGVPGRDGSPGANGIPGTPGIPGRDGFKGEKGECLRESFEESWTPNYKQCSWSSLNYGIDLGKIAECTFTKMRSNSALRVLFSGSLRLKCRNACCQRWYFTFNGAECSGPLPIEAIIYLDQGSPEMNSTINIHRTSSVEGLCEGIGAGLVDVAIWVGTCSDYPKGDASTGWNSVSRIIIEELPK
SPRR1A (human), sequence (P35321 whole entry): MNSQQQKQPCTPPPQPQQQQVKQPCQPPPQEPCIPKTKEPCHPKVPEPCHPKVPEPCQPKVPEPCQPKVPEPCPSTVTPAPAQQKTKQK

For “C-terminal FLAG tagged B3GNT2 (from UniProt Q9NY97 1-397) (enzyme)”, the co-IP mass spectrometry count was found to be 8 with GANAB (human); 5 in the assay with PIGR (human); 4 with ZC3HAV1 (human); 6 with EIF4A1 (human); 7 with SDF4 (human); 3 in the assay with SPRR1A (human). Besides, the co-IP mass spectrometry count was determined as 2 with TOR1AIP2 (human); 2 with RRP12 (human); 4 with EPRS (human); 6 with HSPD1 (human); 2 in the assay with IPO13 (human); 4 with DNAJB11 (human). Moreover, the co-IP mass spectrometry count with UGGT1 (human) is 5; with ARHGEF2 (human), 2; with SEL1L (human) it was 5; in the assay with CCT2 (human), 2; with CCT7 (human), 2; with ARF4 (human), 4. Besides, the co-IP mass spectrometry count in the assay with RPS4X (human) was found to be 23; with GAPDH (human), 16; with HADHA (human), 2; with CTHRC1 (human), 2; with SLC25A5 (human), 30; with PJA2 (human), 2. Further, the co-IP mass spectrometry count was 3 with MYO1C (human); 6 in the assay with RPS27 (human); 8 with NPM1 (human); 2 with RARS (human); 2 with STAU2 (human); 7 with RPL32 (human).

Take “IgG control (Millipore Sigma 12-371) (antibody)”: the co-IP mass spectrometry count with FUBP3 (human) stood at 8; with SAMM50 (human) it was 0; with HUWE1 (human) it was 0; with HSPA8 (human), 16; in the assay with LSM12 (human), 2; in the assay with G3BP1 (human) it was 29. This substance displayed a co-IP mass spectrometry count in the assay with PRRC2A (human) of 3.
